T1: FcγRIIa H (FcγRIIa type H, His at position 131), extracellular domain with C-terminal His tag (human, UniProt P12318 34-217)
T1 construct: extracellular domain; also called FcgRIIa H; 2aH
T1 sequence (looked up): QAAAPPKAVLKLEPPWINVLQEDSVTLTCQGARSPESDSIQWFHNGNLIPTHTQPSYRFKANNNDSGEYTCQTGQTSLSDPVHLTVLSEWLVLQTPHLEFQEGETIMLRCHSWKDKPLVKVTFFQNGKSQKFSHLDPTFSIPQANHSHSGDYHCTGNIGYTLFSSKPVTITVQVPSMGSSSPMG

B1: GpH7-A5/GpH7-B3 variant H268_09D/GpL16-k0 (antibody, human IgG1, kappa)
heavy 1: not shown
heavy 2: not shown
light: DIVMTQSPLSLPVTPGEPASISCQASESLVHSNRNTYLHWYLQKPGQSPQLLIYKVSNRFSGVPDRFSGSGSGTDFTLKISRVEAEDVGVYYCSQNTHVPPTFGQGTKVEIERTVAAPSVFIFPPSDEQLKSGTASVVCLLNNFYPREAKVQWKVDNALQSGNSQESVTEQDSKDSTYSLSSTLTLSKADYEKHKVYACEVTHQGLSSPVTKSFNRGEC
notes: one H chain mutated; also called He Ab
B2: GpH7-A5/GpH7-B3 variant S324_09D/GpL16-k0 (antibody, human IgG1, kappa)
heavy 1: not shown
heavy 2: not shown
light: B1 light
notes: as for B1
B3: GpH7-A5/GpH7-B3 variant I332_13S/GpL16-k0 (antibody, human IgG1, kappa)
heavy 1: not shown
heavy 2: not shown
light: B1 light
notes: as for B1
B4: GpH7-A5/GpH7-B3 variant I332_10E/GpL16-k0 (antibody, human IgG1, kappa)
heavy 1: not shown
heavy 2: not shown
light: B1 light
notes: as for B1
B5: GpH7-A5/GpH7-B3 variant T335_07I/GpL16-k0 (antibody, human IgG1, kappa)
heavy 1: not shown
heavy 2: not shown
light: B1 light
notes: as for B1
B6: GpH7-A5/GpH7-B3 variant L328_02A/GpL16-k0 (antibody, human IgG1, kappa)
heavy 1: not shown
heavy 2: not shown
light: B1 light
notes: as for B1
B7: GpH7-A5/GpH7-B3 variant K326_09D/GpL16-k0 (antibody, human IgG1, kappa)
heavy 1: not shown
heavy 2: not shown
light: B1 light
notes: as for B1
B8: GpH7-A5/GpH7-B3 variant S337_14T/GpL16-k0 (antibody, human IgG1, kappa)
heavy 1: not shown
heavy 2: not shown
light: B1 light
notes: as for B1
B9: GpH7-A5/GpH7-B3 variant K326_19Q/GpL16-k0 (antibody, human IgG1, kappa)
heavy 1: not shown
heavy 2: not shown
light: B1 light
notes: as for B1
B10: GpH7-A5/GpH7-B3 variant K334_08L/GpL16-k0 (antibody, human IgG1, kappa)
heavy 1: not shown
heavy 2: not shown
light: B1 light
notes: as for B1
B11: GpH7-A5/GpH7-B3 variant T335_10E/GpL16-k0 (antibody, human IgG1, kappa)
heavy 1: not shown
heavy 2: not shown
light: B1 light
notes: as for B1
B12: GpH7-A5/GpH7-B3 variant S324_20W/GpL16-k0 (antibody, human IgG1, kappa)
heavy 1: not shown
heavy 2: not shown
light: B1 light
notes: as for B1
B13: GpH7-A5/GpH7-B3 variant K334_04F/GpL16-k0 (antibody, human IgG1, kappa)
heavy 1: not shown
heavy 2: not shown
light: B1 light
notes: as for B1
B14: GpH7-A5/GpH7-B3 variant T335_15Y/GpL16-k0 (antibody, human IgG1, kappa)
heavy 1: not shown
heavy 2: not shown
light: B1 light
notes: as for B1
B15: GpH7-A5/GpH7-B3 variant K326_06M/GpL16-k0 (antibody, human IgG1, kappa)
heavy 1: not shown
heavy 2: not shown
light: B1 light
notes: as for B1
B16: GpH7-A5/GpH7-B3 variant T335_19Q/GpL16-k0 (antibody, human IgG1, kappa)
heavy 1: not shown
heavy 2: not shown
light: B1 light
notes: as for B1
B17: GpH7-A5/GpH7-B3 variant Q295_07I/GpL16-k0 (antibody, human IgG1, kappa)
heavy 1: not shown
heavy 2: not shown
light: B1 light
notes: as for B1
B18: GpH7-A5/GpH7-B3 variant T335_01G/GpL16-k0 (antibody, human IgG1, kappa)
heavy 1: not shown
heavy 2: not shown
light: B1 light
notes: as for B1
B19: GpH7-A5/GpH7-B3 variant S324_02A/GpL16-k0 (antibody, human IgG1, kappa)
heavy 1: not shown
heavy 2: not shown
light: B1 light
notes: as for B1
B20: GpH7-A5/GpH7-B3 variant K334_07[ (read as K334_07I)/GpL16-k0 (antibody, human IgG1, kappa)
heavy 1: not shown
heavy 2: not shown
light: B1 light
notes: as for B1
B21: GpH7-A5/GpH7-B3 variant K334_14T/GpL16-k0 (antibody, human IgG1, kappa)
heavy 1: not shown
heavy 2: not shown
light: B1 light
notes: as for B1
B22: GpH7-A5/GpH7-B3 variant I332_06M/GpL16-k0 (antibody, human IgG1, kappa)
heavy 1: not shown
heavy 2: not shown
light: B1 light
notes: as for B1
B23: GpH7-A5/GpH7-B3 variant I332_04F/GpL16-k0 (antibody, human IgG1, kappa)
heavy 1: not shown
heavy 2: not shown
light: B1 light
notes: as for B1
B24: GpH7-A5/GpH7-B3 variant H268_10E/GpL16-k0 (antibody, human IgG1, kappa)
heavy 1: not shown
heavy 2: not shown
light: B1 light
notes: as for B1
B25: GpH7-A5/GpH7-B3 variant S324_06M/GpL16-k0 (antibody, human IgG1, kappa)
heavy 1: not shown
heavy 2: not shown
light: B1 light
notes: as for B1
B26: GpH7-A5/GpH7-B3 variant S337_16H/GpL16-k0 (antibody, human IgG1, kappa)
heavy 1: not shown
heavy 2: not shown
light: B1 light
notes: as for B1
B27: GpH7-A5/GpH7-B3 variant I336_06M/GpL16-k0 (antibody, human IgG1, kappa)
heavy 1: not shown
heavy 2: not shown
light: B1 light
notes: as for B1
B28: GpH7-A5/GpH7-B3 variant I332_09D/GpL16-k0 (antibody, human IgG1, kappa)
heavy 1: not shown
heavy 2: not shown
light: B1 light
notes: as for B1
B29: GpH7-A5/GpH7-B3 variant L328_06M/GpL16-k0 (antibody, human IgG1, kappa)
heavy 1: not shown
heavy 2: not shown
light: B1 light
notes: as for B1
B30: GpH7-A5/GpH7-B3 variant K334_03V/GpL16-k0 (antibody, human IgG1, kappa)
heavy 1: not shown
heavy 2: not shown
light: B1 light
notes: as for B1
B31: GpH7-A5/GpH7-B3 variant S267_02A/GpL16-k0 (antibody, human IgG1, kappa)
heavy 1: not shown
heavy 2: not shown
light: B1 light
notes: as for B1
B32: GpH7-A5/GpH7-B3 variant T335_13S/GpL16-k0 (antibody, human IgG1, kappa)
heavy 1: not shown
heavy 2: not shown
light: B1 light
notes: as for B1
B33: GpH7-A5/GpH7-B3 variant S324_10E/GpL16-k0 (antibody, human IgG1, kappa)
heavy 1: not shown
heavy 2: not shown
light: B1 light
notes: as for B1
B34: GpH7-A5/GpH7-B3 variant L328_14T/GpL16-k0 (antibody, human IgG1, kappa)
heavy 1: not shown
heavy 2: not shown
light: B1 light
notes: as for B1
B35: GpH7-A5/GpH7-B3 variant K334_15Y/GpL16-k0 (antibody, human IgG1, kappa)
heavy 1: not shown
heavy 2: not shown
light: B1 light
notes: as for B1
B36: GpH7-A5/GpH7-B3 variant I332_18N/GpL16-k0 (antibody, human IgG1, kappa)
heavy 1: not shown
heavy 2: not shown
light: B1 light
notes: as for B1
B37: GpH7-A5/GpH7-B3 variant Q295_05P/GpL16-k0 (antibody, human IgG1, kappa)
heavy 1: not shown
heavy 2: not shown
light: B1 light
notes: as for B1
B38: GpH7-A5/GpH7-B3 variant I332_16H/GpL16-k0 (antibody, human IgG1, kappa)
heavy 1: not shown
heavy 2: not shown
light: B1 light
notes: as for B1
B39: GpH7-A5/GpH7-B3 variant H268_18N/GpL16-k0 (antibody, human IgG1, kappa)
heavy 1: not shown
heavy 2: not shown
light: B1 light
notes: as for B1
B40: GpH7-A5/GpH7-B3 variant L235_20W/GpL16-k0 (antibody, human IgG1, kappa)
heavy 1: not shown
heavy 2: not shown
light: B1 light
notes: as for B1
B41: GpH7-A5/GpH7-B3 variant I332_15Y/GpL16-k0 (antibody, human IgG1, kappa)
heavy 1: not shown
heavy 2: not shown
light: B1 light
notes: as for B1
B42: GpH7-A5/GpH7-B3 variant K326_14T/GpL16-k0 (antibody, human IgG1, kappa)
heavy 1: not shown
heavy 2: not shown
light: B1 light
notes: as for B1
B43: GpH7-A5/GpH7-B3 variant S337_09D/GpL16-k0 (antibody, human IgG1, kappa)
heavy 1: not shown
heavy 2: not shown
light: B1 light
notes: as for B1
B44: GpH7-A5/GpH7-B3 variant I336_08L/GpL16-k0 (antibody, human IgG1, kappa)
heavy 1: not shown
heavy 2: not shown
light: B1 light
notes: as for B1
B45: GpH7-A5/GpH7-B3 variant T335_16H/GpL16-k0 (antibody, human IgG1, kappa)
heavy 1: not shown
heavy 2: not shown
light: B1 light
notes: as for B1
B46: GpH7-A5/GpH7-B3 variant I332_03V/GpL16-k0 (antibody, human IgG1, kappa)
heavy 1: not shown
heavy 2: not shown
light: B1 light
notes: as for B1
B47: GpH7-A5/GpH7-B3 variant I332_14T/GpL16-k0 (antibody, human IgG1, kappa)
heavy 1: not shown
heavy 2: not shown
light: B1 light
notes: as for B1
B48: GpH7-A5/GpH7-B3 variant K326_10E/GpL16-k0 (antibody, human IgG1, kappa)
heavy 1: not shown
heavy 2: not shown
light: B1 light
notes: as for B1
B49: GpH7-A5/GpH7-B3 variant I332_19Q/GpL16-k0 (antibody, human IgG1, kappa)
heavy 1: not shown
heavy 2: not shown
light: B1 light
notes: as for B1
B50: GpH7-A5/GpH7-B3 variant H268_13S/GpL16-k0 (antibody, human IgG1, kappa)
heavy 1: not shown
heavy 2: not shown
light: B1 light
notes: as for B1
B51: GpH7-A5/GpH7-B3 variant S239_09D/GpL16-k0 (antibody, human IgG1, kappa)
heavy 1: not shown
heavy 2: not shown
light: B1 light
notes: as for B1
B52: GpH7-A5/GpH7-B3 variant L328_13S/GpL16-k0 (antibody, human IgG1, kappa)
heavy 1: not shown
heavy 2: not shown
light: B1 light
notes: as for B1
B53: GpH7-A5/GpH7-B3 variant K334_16H/GpL16-k0 (antibody, human IgG1, kappa)
heavy 1: not shown
heavy 2: not shown
light: B1 light
notes: as for B1
B54: GpH7-A5/GpH7-B3 variant P271_01G/GpL16-k0 (antibody, human IgG1, kappa)
heavy 1: not shown
heavy 2: not shown
light: B1 light
notes: as for B1
B55: GpH7-A5/GpH7-B3 variant S337_10E/GpL16-k0 (antibody, human IgG1, kappa)
heavy 1: not shown
heavy 2: not shown
light: B1 light
notes: as for B1

molecular target: T1, FcγRIIa H (FcγRIIa type H, His at …); assay: SPR Biacore, relative binding, GpH7-A5/GpH7-B3/GpL16-k0 (HeCon Ab)=100
Description: Analysis of interaction between objective antibody and the FcγR was carried out using Biacore T100 (GE Healthcare). HBS-EP+ (GE Healthcare) was used as the running buffer, and the measurement temperature was set to 25° C. Chips produced by immobilizing the antigen peptide by the amine coupling method to a Series S Sencor Chip CM5 (GE Healthcare), or alternatively, chips produced by allowing preliminarily biotinylated antigen peptides to interact with and immobilize onto a Series S Sensor Chip SA (certified) (GE Healthcare) were used. Antibodies of interest were captured onto an antigen peptide-immobilized chip, and allowed to interact to each FcγR diluted with running buffer. To regenerate and repeatedly use the chip, the antibodies captured on the chip were washed off by reacting 10 mM glycine-HCl, pH 1.5.

Row | He/Con_2aH | Binder
1 | 133 % of control | B1
2 | 106 % of control | B2
3 | 110 % of control | B3
4 | 108 % of control | B4
5 | 108 % of control | B5
6 | 130 % of control | B6
7 | 110 % of control | B7
8 | 103 % of control | B8
9 | 101 % of control | B9
10 | 104 % of control | B10
11 | 108 % of control | B11
12 | 103 % of control | B12
13 | 106 % of control | B13
14 | 106 % of control | B14
15 | 103 % of control | B15
16 | 103 % of control | B16
17 | 102 % of control | B17
18 | 103 % of control | B18
19 | 102 % of control | B19
20 | 110 % of control | B20
21 | 103 % of control | B21
22 | 110 % of control | B22
23 | 104 % of control | B23
24 | 124 % of control | B24
25 | 117 % of control | B25
26 | 101 % of control | B26
27 | 106 % of control | B27
28 | 118 % of control | B28

Row | He/Con_2aH | Binder
29 | 104 % of control | B29
30 | 109 % of control | B30
31 | 120 % of control | B31
32 | 106 % of control | B32
33 | 103 % of control | B33
34 | 116 % of control | B34
35 | 106 % of control | B35
36 | 110 % of control | B36
37 | 103 % of control | B37
38 | 109 % of control | B38
39 | 112 % of control | B39
40 | 118 % of control | B40
41 | 115 % of control | B41
42 | 114 % of control | B42
43 | 107 % of control | B43
44 | 106 % of control | B44
45 | 105 % of control | B45
46 | 105 % of control | B46
47 | 115 % of control | B47
48 | 102 % of control | B48
49 | 108 % of control | B49
50 | 112 % of control | B50
51 | 114 % of control | B51
52 | 123 % of control | B52
53 | 104 % of control | B53
54 | 107 % of control | B54
55 | 102 % of control | B55
